Laboratory results as given in patent US20220169679A1 (THAI UNION GROUP PUBLIC, published 2022).
Where “and” joins values, the source holds several entries; their conditions need not be identical. Identical values can stand only once.

Molecular target: angiotensin I-converting enzyme (ACE)
Test: cell-based or functional assay

IC50 of ACE inhibitory activity | Binder
0.93 µg/ml and 1.24 µM | NLLPHR [NLLPHR (SEQ ID NO: 3)]
0.27 µg/ml and 0.24 µM | VIYSRINCR [VIYSRINCR (SEQ ID NO: 5)]
0.89 µg/ml and 0.95 µM | VSVVQYSR [VSVVQYSR (SEQ ID NO: 4)]

Molecular target: angiotensin I-converting enzyme (ACE)
Test: cell-based or functional assay
Remark: another data set of the same source

ACE inhibition (%) at 1 mg/ml | Binder
68% | WTIHTP [WTIHTP (SEQ ID NO: 17)]
88.4% | FDQFLPIH [FDQFLPIH (SEQ ID NO: 20)]
94.9% | NLLPHR [NLLPHR (SEQ ID NO: 3)]
97% | VIYSRINCR [VIYSRINCR (SEQ ID NO: 5)]
82% | APPHIF [APPHIF (SEQ ID NO: 23)]
45.3% | IFERL [IFERL (SEQ ID NO: 19)]
24.3% | IKVGGERF [IKVGGERF (SEQ ID NO: 29)]
71.7% | LPPGKIV [LPPGKIV (SEQ ID NO: 18)]
1.9% | LEQVSAGTT [LEQVSAGTT (SEQ ID NO: 25)]
33.4% | LIHAIL [LIHAIL (SEQ ID NO: 14)]
27% | HFAASGK [HFAASGK (SEQ ID NO: 24)]
94.2% | VSVVQYSR [VSVVQYSR (SEQ ID NO: 4)]
21.5% | KKLEKKTT [KKLEKKTT (SEQ ID NO: 30)]
77.7% | SFLMRK [SFLMRK (SEQ ID NO: 15)]
79% | LLHAKPLN [LLHAKPLN (SEQ ID NO: 28)]
2.91% | QGPPGNPG [QGPPGNPG (SEQ ID NO: 32)]
70.6% | GVPGIHGS [… (SEQ ID NO: 31)]
49% | MTGLPGPTGP [MTGLPGPTGP (SEQ ID NO: 33)]
55.1% | VLMSQVFKQT [VLMSQVFKQT (SEQ ID NO: 16)]
36.9% | VQSVPAT [VQSVPAT (SEQ ID NO: 26)]
85.8% | GPLYHS [GPLYHS (SEQ ID NO: 13)]
15.5% | VEWKERATE [VEWKERATE (SEQ ID NO: 27)]
29.2% | LLDHRANL [LLDHRANL (SEQ ID NO: 22)]
25.9% | NGPSGQTG [NGPSGQTG (SEQ ID NO: 21)]

Molecular target: angiotensin I-converting enzyme (ACE)
Test: cell-based or functional assay
Remark: another data set of the same source

ACE inhibitory activity (%) at 1 µg/ml | ACE inhibitory activity (%) at 1 mg/ml | Binder
27.5% | 98.8% | SRINCR [SRINCR (SEQ ID NO: 8)]
29.1% | 101% | INCR [INCR (SEQ ID NO: 7)]
12.1% | 97.8% | VIYSR [VIYSR (SEQ ID NO: 6)]
– | 18.5% | VIY
